Laboratory results taken from paper PMC13199644, “Optimized Quantitative Bacterial Two-Hybrid (qB2H) for Protein–Protein Interaction Assessment” (Computational and Structural Biotechnology Journal, 2026).
Residue numbers refer to the chain shown, from its start.

B1: T32_Kan[209]_top1 (AEEEAARFAALLAALP-GSK-ip4_mutG), purified peptide (designed binder)
peptide: AEEEAARFAALLAALPGSKWARLARRTAGAGGVTLNGAG
notes: designed N-terminal extension; linker; ip4_mutG; source: E. coli BL21(DE3) Star, purified (Ni-NTA, SUMO protease, Resource RPC, Superdex 30); not shown: His6, N-terminal, cleaved; SUMO, N-terminal, cleaved
B2: Kan[348]_top2 (AAAERARFAALLAKLP-GSK-ip4_mutG), purified peptide (designed binder)
peptide: B1 peptide with E2A, E3A, A5R, A14K
notes: as for B1
B3: Kan[348]_top1 (SAAARWAAALAALP-GSK-ip4_mutG), purified peptide (designed binder)
peptide: SAAARWAAALAALPGSKWARLARRTAGAGGVTLNGAG
notes: as for B1
B4: ip4_mutG (peptide)
peptide: WARLARRTAGAGGVTLNGAG
notes: also called constant C-terminal scaffold

Each binder was assayed against T1, Recombinant human ASF1AN (residues 1 to 156) (human, UniProt Q9Y294 1-156) (assay: ITC; VP-ITC, 20 °C, 50 mM tris-HCl pH 7.5; binder injected into the ASF1 solution; One Set of Sites model; duplicate). Conditions: both partners purified.
T1 construct: N-terminal domain of human ASF1A, UniProt Q9Y294, residues 1 to 156; Unlabeled for ITC; uniformly 15N- and/or 15N-13C-labeled for NMR; Made from pETM30 with a TEV cleavage site; also called hASF1AN; 15N-ASF1AN; source: E. coli, purified (glutathione agarose, TEV cleavage, Ni-NTA flow-through, Resource Q); not shown: His6, N-terminal, cleaved; GST, N-terminal, cleaved
T1 sequence (Q9Y294 1-156): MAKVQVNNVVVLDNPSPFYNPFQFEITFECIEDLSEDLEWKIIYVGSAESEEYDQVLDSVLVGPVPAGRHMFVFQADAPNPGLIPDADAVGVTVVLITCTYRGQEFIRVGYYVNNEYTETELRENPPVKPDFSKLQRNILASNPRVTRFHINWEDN

Kd [nM] | Binder
152 ± 25 | B1
581 ± 98 | B2
235 ± 26 | B3
10600 ± 1000 | B4
